From patent publication US20120027756A1 (IRM, published 2012)
Each block holds one binder with its values, some of them ahead of it.

How the values were obtained:
[1] = biological target: T1, Human TSLPR fragment 67-174 (human, UniProt Q9HC73); experiment: ELISA of antibody 1D6.C9 on human TSLPR fragments (OD650); hFc bars as control for the fragment
T1 construct: extracellular domain fragment; also called 67 (23) to 174 (58)
T1 receptor fragment (looked up): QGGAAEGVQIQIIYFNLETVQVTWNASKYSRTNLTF

[2] = biological target: T2, Human TSLPR fragment 67-336 (human, UniProt Q9HC73); experiment: as above
T2 construct: extracellular domain fragment; also called 67 (23) to 336 (112)
T2 sequence (receptor fragment, looked up): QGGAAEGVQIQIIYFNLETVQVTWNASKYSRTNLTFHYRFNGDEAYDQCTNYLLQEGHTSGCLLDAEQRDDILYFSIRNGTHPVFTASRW

[3] = biological target: T3, Human TSLPR (human, UniProt Q9HC73 23-231, limits assumed); experiment: Biacore surface plasmon resonance
T3 construct: also called hTSLPR; human thymic stromal lymphopoietin receptor
T3 sequence (looked up): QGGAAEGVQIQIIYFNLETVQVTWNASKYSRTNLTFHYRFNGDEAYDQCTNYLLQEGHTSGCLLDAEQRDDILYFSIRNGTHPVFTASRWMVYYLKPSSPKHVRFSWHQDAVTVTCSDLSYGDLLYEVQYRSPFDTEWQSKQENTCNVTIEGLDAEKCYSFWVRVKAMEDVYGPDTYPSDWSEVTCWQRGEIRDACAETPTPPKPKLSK

[4] = biological target: T3, Human TSLPR; experiment: ForteBio, solution binding kinetics
[5] = biological target: T4, Human TSLPR on the cell surface (Ba/F3/hTSLPR/hIL7Rα cells, Ba/F3/hTSLPR/hIL7Rα/Stat5-Luc cells, human … (human, UniProt Q9HC73 23-371)); experiment: cell-based or functional assay
T4 sequence (looked up): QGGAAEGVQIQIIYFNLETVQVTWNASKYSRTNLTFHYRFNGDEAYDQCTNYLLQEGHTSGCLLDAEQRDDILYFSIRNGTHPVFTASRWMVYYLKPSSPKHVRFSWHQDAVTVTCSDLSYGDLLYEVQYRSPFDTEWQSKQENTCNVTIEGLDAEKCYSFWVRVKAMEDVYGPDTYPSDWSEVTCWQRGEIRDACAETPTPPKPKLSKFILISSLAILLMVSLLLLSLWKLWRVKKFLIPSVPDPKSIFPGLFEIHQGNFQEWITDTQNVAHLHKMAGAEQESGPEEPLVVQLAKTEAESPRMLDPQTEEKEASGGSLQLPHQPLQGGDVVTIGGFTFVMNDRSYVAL

binding result [1]: no binding
binding result [2]: no binding
B1: mouse anti-hTSLPR monoclonal antibody clone 1D6.C9 (antibody, V domains shown)
VH: QIQLGQSGPELKKPGETVKISCKASGYTFTTYGMSWVKQAPGKGLQWMGWINTYSGVPRYADDFKGRFAFSLETSASTAYLQIYNLKNEDTATYFCTREGFITTVVGAAGRFVYWGQGTLVTVSA
VL: DIVMTQSHKFMSTSVGDRVSITCKASQDVGTAVAWYQQKPGQSPKLLIYWASTRHTGVPDRFTGSGSGTDFTLTLNNVQSEDLADYFCQQYSTYPTFGSGTKLELKR
notes: also called mAb 1D6.C9; mouse anti-hTSLPR antibody

Kd [3]: 0.101 nM
Kd [4]: 0.051 nM
IC50 [pM] Human TSLPR Prolif. [5]: 210 pM
IC50 [pM] Human TSLPR Prolif. (15% serum) [5]: 200 pM
IC50 [pM] Human TSLPR RGA [5]: 270 pM
IC50 [pM] Human TSLPR RGA (15% serum) [5]: 950 pM
B2: NV115-3B (Fab) (Fab, V domains shown)
VH: QVQLVQSGAEVKKPGASVKVSCKASGYTFTTYGISWLRQAPGQGLEWMGWVNTNTGNPRYAQGFTGRFVFSLDTSVSTAYLQISSLKAEDTAVYYCAREGFITTVVGAAGRFVYWGQGTLVTVSS
VL: DIQMTQSPSSLSASVGDRVTITCRASQDIHTRLAWYQQKPGQPPKLLIYWASTRASGVPDRFSGTGSGTDFTLTISSLQAEDVAVYYCQQYSTYPTFGQGTKLEIK
notes: the constant domains of the Fab are not
